Measured values from PMC6695210, “Bipartite interface of the measles virus phosphoprotein X domain with the large polymerase protein regulates viral polymerase dynamics” (PLoS Pathogens, 2019).
Substitutions are numbered along the chain they refer to.

B1: MeV P (361–364)Ala, P with residues 361–364 substituted with alanines (natural protein, measles virus (strain IC-B), UniProt Q9WMB4 1-507, looked up)
chain: MAEEQARHVKNGLECIRALKAEPIGSLAVEEAMAAWSEISDNPGQDRATCKEEEAGSSGLSKPCLSAIGSTEGGAPRIRGQGSGESDDDAETLGIPSRNLQASSTGLQCYHVYDHSGEAVKGIQDADSIMVQSGLDGDSTLSGGDDESENSDVDIGEPDTEGYAITDRGSAPISMGFRASDVETAEGGEIHELLKLQSRGNNFPKLGKTLNVPPPPNPSRASTSETPIKKGTDARLASFGTEIASLLTGGATQCARKSPSEPSGPGAPAGNVPECVSNAALIQEWTPESGTTISPRSQNNEEGGDYYDDELFSDVQDIKTALAKIHEDNQKIISKLESLLLLKGEVESIKKQINRQNISIAAAAGHLSSIMIAIPGLGKDPNDPTADVELNPDLKPIIGRDSGRALAEVLKKPVASRQLQGMTNGRTSSRGQLLKEFQLKPIGKKVSSAVGFVPDTGPASRSVIRSIIKSSRLEEDRKRYLMTLLDDIKGANDLAKFHQMLMKIIMK
notes: MeV strain IC-B phosphoprotein P; of the old residues only S361 is printed in the text; also called M1; source: transiently transfected cells, in lysate; not shown: HA, C-terminal, kept
B2: MeV phosphoprotein (P), wild type (natural protein)
chain: B1 chain with A361S, A362T, A363L, A364E
notes: measles virus (MeV) strain IC-B phosphoprotein P, codon-optimized synthetic ORF; ends at residue 507 by the printed limits of P-XD (459–507); also called wild type P; wt P; not shown: HA, C-terminal, kept

Experiments:
Experiment in all cases: native gel or EMSA; native PAGE (3–12% Bis-Tris gradient gels, G-250 additive) of cleared lysates of transfected cells, immunoblot; trimeric and dimeric GCN4 variants as mobility reference
[1] = molecular target: MeV P-GCN4_(303-360), P with OD residues 303–360 replaced by the tetrameric mutant of the yeast GCN4 coiled-coil (measles virus (strain IC-B) | yeast) (UniProt Q9WMB4)
[2] = molecular target: MeV P with residues 303–377 replaced by the tetrameric mutant of the yeast GCN4 coiled-coil (measles virus (strain IC-B) | yeast) (UniProt Q9WMB4)
[3] = molecular target: the molecule itself

Molecule	stoichiometry N [3]	other results
MeV P-GCN4_(303-360), P with OD residues 303–360 replaced by the tetrameric mutant of the yeast GCN4 coiled-coil (from UniProt Q9WMB4 1-302; Q9WMB4 361-507)	–	stoichiometry N [1]: 4
MeV P with residues 303–377 replaced by the tetrameric mutant of the yeast GCN4 coiled-coil (from UniProt Q9WMB4 1-302; Q9WMB4 378-507)	–	stoichiometry N [2]: 4
B1	4	–
B2	4	–
